Data published in patent US8722732B2, “Oligomer-calcimimetic conjugates and related compounds” (Nektar Therapeutics, priority 2009, dated 2014).
Like-named read-outs stand apart in the source and are kept apart here.

Key:
[1] = tested on: plasma PTH (parathyroid hormone) levels; experiment: In vivo screen, PTH-lowering effects in normal rats (plasma PTH by ELISA); design: species or system rat
Procedure: PEG-Cinacalcet calcimmetic effects were studied in PTH (parathyroid hormone)-lowering experiments in normal rats. Male SD rats (˜350 g) were IV dosed with different compounds at 1 mg/kg or orally (“PO”) cinacalcet at 10 mg/kg. Plasma samples were collected and prepared at different timepoints (up to 72 hours) after drug administration. The plasma PTH levels were quantified by ELISA.

[2] = Hydrolysis of compounds in pH 7.4 PBS buffer at 37° C. (HPLC); format: physicochemical
Procedure: The solution was placed into ten different HPLC vials and the HPLC vials were put into a 37° C. incubator. The samples were analyzed by HPLC at different timepoints. When hydrolysis occurred, HPLC confirmed that cinacalcet was released unaltered.

[3] = rat, in vivo, 1 mg/kg; for AUCall / Clearance: iv
Procedure: (§1) Compound (15), Compound (20), Compound (16), Compound (21), Compound (24), Compound (25), Compound (28) and Compound (29), prepared in accordance with Examples, 5, 7, 6, 8, 9, 10, 11 and 12 respectively, were separately administered intravenously to four male rats to provide a cinacalcet equivalent dose of 1 mg/kg. Parent compound cinacalcet prepared in DMSO at 1 mg/kg was separately administrated intravenously to four male rats. For these cohorts, blood was collected at the following time points: 0 (predose), 2 minutes, 10 minutes, 1 hour, 2 hours, 4 hours, 8 hours, 24 hours, 48 hours and 72 hours following administration.

[4] = tested on: plasma PTH (parathyroid hormone) levels; experiment: In vivo screen, rat chronic renal insufficiency (CRI) model, 5/6 nephrectomy; conditions: 5/6 Nx rats, 6-8 weeks post surgery
Description: The approach set forth in Example 14 is repeated except rats were surgically modified to mimic chronic renal insufficiency through the total removal of one kidney and ⅔ of the other kidney (a 5/6 nephrectomy or “5/6Nx”). […] Parathyroid hormone levels in normal rats are around 100 pg/ml and in 5/6 Nx rats they increase to 500-1000 pg/ml.

[5] = dog, in vivo
Procedure: (§2) Briefly, cinacalcet hydrochloride was administered orally to three male beagle dogs to provide a cinacalcet equivalent dose of 2.0 mg/kg. […] For both the cohorts, blood was collected at the following time points: 0 (predose); 10 min, 1, 2, 4, 8, 24, 48, 72, 120 and 144 h.

[6] = Hydrolysis / pharmacokinetics in an in vivo dog study; conditions: male, beagle, plasma, po, 10 mg/kg
Procedure: as §2

[7] = Hydrolysis / pharmacokinetics in an in vivo rat study (plasma concentration-time profiles); conditions: male, po, 10 mg/kg
Procedure: as §1

CYP2D6 = CYP2D6 (Homo sapiens, UniProt P10635); conditions: background statement; cited from earlier work
Sequence of CYP2D6 (P10635 whole entry): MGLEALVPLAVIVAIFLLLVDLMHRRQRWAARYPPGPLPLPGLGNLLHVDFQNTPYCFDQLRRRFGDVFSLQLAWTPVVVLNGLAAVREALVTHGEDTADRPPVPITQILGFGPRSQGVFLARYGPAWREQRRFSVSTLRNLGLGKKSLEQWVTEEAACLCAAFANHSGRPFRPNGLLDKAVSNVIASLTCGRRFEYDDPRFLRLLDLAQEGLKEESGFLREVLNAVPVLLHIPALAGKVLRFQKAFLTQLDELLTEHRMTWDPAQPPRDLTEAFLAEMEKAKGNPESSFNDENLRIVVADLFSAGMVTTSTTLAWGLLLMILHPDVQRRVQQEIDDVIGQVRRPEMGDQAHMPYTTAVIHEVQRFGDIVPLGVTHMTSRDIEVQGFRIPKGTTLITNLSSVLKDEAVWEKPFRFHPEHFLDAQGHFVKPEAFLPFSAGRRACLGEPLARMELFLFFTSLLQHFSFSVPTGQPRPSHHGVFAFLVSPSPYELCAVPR

Molecule | PTH-lowering effect (in words) ([1]; IV, 1 mg/kg) | time at which animal PTH levels return to baseline ([1]; IV, 1 mg/kg) [h] | t1/2 in PBS [2] [h] | cinacalcet release after intravenous administration (in words) [3] | time for which release of cinacalcet continues following intravenous administration [3] [h] | other results
mPEG10k-L-valine-acyloxymethyl-carbamate-cinacalcet [Compound (24)] | variable PTH-lowering effects | ~24 | ~317 | relatively significant amounts of cinacalcet release | 8 to 12 | –
Four-arm-PEG20k-glycine-amide-cinacalcet [Compound (16)] | – | – | – | – | – | reduction of PTH levels (in words) [4]: PTH levels are not reduced as significantly as Compounds (25), (28), and (29)
Four-arm-PEG20k-L-leucine-acyloxymethyl-carbamate-cinacalcet [Compound (21)] | significant PTH-lowering effects | – | – | – | – | AUCall [3]: 5730 ng·min/mL; Clearance [3]: 206 mL/min/kg
Four-arm-PEG30k-L-leucine-acyloxymethyl-carbamate-cinacalcet [Compound (31)] | – | – | – | – | – | Cmax versus cinacalcet (in words) [5]: blunted; half-life versus cinacalcet (in words) [5]: increased; time up to which therapeutically relevant levels of cinacalcet are released ([5]; iv): up to 72 hours; AUCall ([5]; iv, 1 mg/kg): 176 ng·h/mL; Clearance ([5]; iv, 1 mg/kg): 43.33 mL/min/kg; T1/2 ([5]; iv, 1 mg/kg): 0.432 h; Vz(F) ([5]; iv, 1 mg/kg): 97.2 L/kg
Four-arm-PEG20k-D-valine-acyloxymethyl-carbamate-cinacalcet [Compound (29)] | variable PTH-lowering effects | ~24 | – | relatively significant amounts of cinacalcet release | 8 to 12 | –
mPEG10k-L-leucine-acyloxymethyl-carbamate-cinacalcet [Compound (20)] | significant PTH-lowering effects | – | ~126 | – | – | PTH-lowering effect lasts up to ([1]; IV, 1 mg/kg): 24 to 48 h; AUCall [3]: 11200 ng·min/mL; Clearance [3]: 100 mL/min/kg
C[C@@H](NCCCc1cccc(C(F)(F)F)c1)c1cccc2ccccc12 [cinacalcet] | – | – | – | – | – | PTH-lowering effect lasts up to ([1]; PO, 10 mg/kg): ~12 h; AUC [6]: 17.8 ng·h/mL; Cmax [6]: 6.01 ng/mL; Vd/F [6]: 294 L/kg; half-life [6]: 1.77 h; AUC [7]: 690 ng·h/mL; Cmax [7]: 97.4 ng/mL; half-life [7]: 2.98 h; CYP2D6 inhibition (CYP2D6): inhibitor of CYP2D6
Four-arm-PEG20k-L-valine-acyloxymethyl-carbamate-cinacalcet [Compound (25)] | variable PTH-lowering effects | ~24 | – | relatively significant amounts of cinacalcet release | 8 to 12 | –
mPEG10k-D-valine-acyloxymethyl-carbamate-cinacalcet [Compound (28)] | variable PTH-lowering effects | ~24 | ~208 | relatively significant amounts of cinacalcet release | 8 to 12 | –
mPEG10k-L-isoleucine-acyloxymethyl-carbamate-cinacalcet [(36)] | – | – | ~470 | – | – | –
